From US20240084039A1
Numbering of substitutions follows the chain as printed.

B1: PRO2230 (scFv)
scFv: DIQMTQSPASLSASVGDRVTITCQASQSIGTYLAWYQQKPGKPPKLLIYRAFILASGVPSRFSGSGSGTDFTLTISSLQPEDFATYYCQSNFYSDSTTIGPNAFGTGTKVTVLGGGGGSGGGGSGGGGSGGGGSEVQLVESGGGLVQPGGSLRLSCAASGFSFNSDYWIYWVRQAPGKGLEWIASIYGGSSGNTQYASWAQGRFTISRDNSKNTVYLQMNSLRAEDTAVYFCARGYVDYGGATDLWGQGTLVTVSS
B2: PRO1922 (scFv)
scFv: DIQMTQSPSSLSASVGDRVTITCQASESIYSSLAWYQQKPGKAPKLLIYLASTLASGVPSRFSGSGSGTDFTLTISSLQPEDFATYYCQSTDYTTSTHRNSFGTGTKVTVLGGGGGSGGGGSGGGGSGGGGSEVQLVESGGGLVQPGGSLRLSCAASGFSFSTTYYMCWVRQAPGKGLEWIGCTNTASSVRTYYATWAKGRFTISRDNSKNTVYLQMNSLRAEDTAVYYCARDMGFADYALNLWGQGTLVTVSS
B3: PRO2668 (protein)
chain: AFELTQSPSSLSASVGDRVTITCQASESINSRLAWYQQKPGQPPKLLIYDASDLTSGVPSRFSGSGSGTDFTLTISSLQPEDFATYYCQGYGGSSTTTFGCGTKLTVLGGGGGSEVQLVESGGGRVQPGGSLRLSCAASGFSLSSYDMSWVRQAPGKGLAWIGASYASGPTYYASWAKGRFTISRDNSKNTVYLQMNSLRAEDTATYFCARGGWTGTSHSNIWGQGTQVTVSSGGGGSGGGGSGGGGSGGGGSDIQMTQSPSSLSASVGDRVTITCQSSQSVFSNNYLAWFQQKPGQSPKRLIYSASTLASGVPSRFSGSGSGTDFTLTISSLQPEDFATYYCLGSYACSSADCYVFGTGTKVTVLGGGGGSEVQLVESGGGRVQPGGSLRLSCAASGFSLSSYAMNWVRQAPGKCLEWIGHINAGDIAYYATWAKGRFTISRDNSKNTVYLQMNSLRAEDTATYFCARGAGGFSTGPFKLWGQGTQVTVSSGGGGSGGGGSAQQLTQSPSSLSASVGDRVTITCQASQNVWNNNYLSWFQQKPGKPPKLLIVTASTLASGVSSRFSGSGSGTDFTLTISSLQPEDFATYYCAGGFSGEIRAFGCGTKVTVLGGGGGSGGGGSGGGGSGGGGSQSQLVESGGGRVQPGGSLRLSCAVSGLSLSRNAMSWVRQAPGKCLEWIGIILTSGSTYYASWAKGRFTISKDNSKNTVYLQMNSLRAEDTATYFCVRGIASSSLKSFWGQGTQVTVSS
B4: PRO2510 (protein)
chain: B3 chain with R125L, Q228L, R383L, T464V, Q487L, R644L, T725V, Q746L
B5: PRO2669 (protein)
chain 1: DVQMTQSPSSLSASVGDRVTITCRASENIYSGLAWYQQKPGKPPKLLIYRASTLASGVSSRFSGSGSGTDFTLTISSLQPEDFATYYCQGGYYSSSSTYIAFGTGTKVTVLGGGGGSGGGGSGGGGSGGGGSQSQVVESGGGRVQPGGSLRLSCAVSGFDLSSYAVSWVRQAPGKGLEWIGIIYPRANTYYASWAKGRFTISKDNSKNTVYLQMNSLRAEDTATYFCARDRYDSGAYLYTTYFNLWGQGTQVTVSSGGGGSGGGGSAFELTQSPSSLSASVGDRVTITCQASESINSRLAWYQQKPGQPPKLLIYDASDLTSGVPSRFSGSGSGTDFTLTISSLQPEDFATYYCQGYGGSSTTTFGCGTKLTVLGGGSGGSDIQMTQSPSSLSASVGDRVTITCQSSQSVFSNNYLAWFQQKPGQSPKRLIYSASTLASGVPSRFSGSGSGTDFTLTISSLQPEDFATYYCLGSYACSSADCYVFGTGTKVTVLG
chain 2: DVQMTQSPSSLSASVGDRVTITCRASENIYSGLAWYQQKPGKPPKLLIYRASTLASGVSSRFSGSGSGTDFTLTISSLQPEDFATYYCQGGYYSSSSTYIAFGTGTKVTVLGGGGGSGGGGSGGGGSGGGGSQSQVVESGGGRVQPGGSLRLSCAVSGFDLSSYAVSWVRQAPGKGLEWIGIIYPRANTYYASWAKGRFTISKDNSKNTVYLQMNSLRAEDTATYFCARDRYDSGAYLYTTYFNLWGQGTQVTVSSGGGGSGGGGSEVQLVESGGGRVQPGGSLRLSCAASGFSLSSYDMSWVRQAPGKGLAWIGASYASGPTYYASWAKGRFTISRDNSKNTVYLQMNSLRAEDTATYFCARGGWTGTSHSNIWGQGTQVTVSSGGGSGGGSGGGSGEVQLVESGGGRVQPGGSLRLSCAASGFSLSSYAMNWVRQAPGKCLEWIGHINAGDIAYYATWAKGRFTISRDNSKNTVYLQMNSLRAEDTATYFCARGAGGFSTGPFKLWGQGTQVTVSS
B6: NM21-1480 (PRO1480) (protein)
chain: DIQMTQSPASLSASVGDRVTITCQASQSIGTYLAWYQQKPGKPPKLLIYRAFILASGVPSRFSGSGSGTDFTLTISSLQPEDFATYYCQSNFYSDSTTIGPNAFGTGTKVTVLGGGGGSEVQLVESGGGLVQPGGSLRLSCAASGFSFSANYYPCWVRQAPGKGLEWIGCIYGGSSDITYDANWTKGRFTISRDNSKNTVYLQMNSLRAEDTAVYYCARSAWYSGWGGDLWGQGTLVTVSSGGGGSGGGGSGGGGSGGGGSIQMTQSPSSLSASVGDRVTITCQASQSISNRLAWYQQKPGKAPKLLIYSASTLASGVPSRFSGSGSGTDFTLTISSLQPEDFATYYCQSTYYGNDGNAFGTGTKVTVLGGGGGSEVQLVESGGGLVQPGGSLRLSCAASGFSFNSDYWIYWVRQAPGKGLEWIASIYGGSSGNTQYASWAQGRFTISRDNSKNTVYLQMNSLRAEDTAVYFCARGYVDYGGATDLWGQGTLVTVSSGGGGSGGGGSIQMTQSPSSLSASVGDRVTITCQSSESVYSNNQLSWYQQKPGQPPKLLIYDASDLASGVPSRFSGSGSGTDFTLTISSLQPEDFATYYCAGGFSSSSDTAFGGGTKLTVLGGGGGSGGGGSGGGGSGGGGSEVQLVESGGGLVQPGGSLRLSCAASGFSLSSNAMGWVRQAPGKGLEYIGIISVGGFTYYASWAKGRFTISRDNSKNTVYLQMNSLRAEDTATYFCARDRHGGDSSGAFYLWGQGTLVTVSS
B7: PRO2758 (protein)
chain: B6 chain with L130R, N183Q, V214T, L236Q, L386R, V470T, L492Q, L649R, L754Q
B8: PRO2759 (protein)
chain: B6 chain with N183Q, L386R, V470T, L492Q
B9: PRO2760 (protein)
chain: B6 chain with L130R, N183Q, V214T, L236Q
B10: PRO2761 (protein)
chain: B6 chain with N183Q, L649R, L754Q
B11: PRO2762 (protein)
chain: DIQMTQSPASLSASVGDRVTITCQASQSIGTYLAWYQQKPGKPPKLLIYRAFILASGVPSRFSGSGSGTDFTLTISSLQPEDFATYYCQSNFYSDSTTIGPNAFGCGTKVTVLGGGGGSEVQLVESGGGRVQPGGSLRLSCAASGFSFSANYYPCWVRQAPGKGLEWIGCIYGGSSDITYDAQWTKGRFTISRDNSKNTVYLQMNSLRAEDTATYYCARSAWYSGWGGDLWGQGTQVTVSSGGGGSGGGGSGGGGSGGGGSIQMTQSPSSLSASVGDRVTITCQASQSISNRLAWYQQKPGKAPKLLIYSASTLASGVPSRFSGSGSGTDFTLTISSLQPEDFATYYCQSTYYGNDGNAFGTGTKVTVLGGGGGSEVQLVESGGGRVQPGGSLRLSCAASGFSFNSDYWIYWVRQAPGKCLEWIASIYGGSSGNTQYASWAQGRFTISRDNSKNTVYLQMNSLRAEDTATYFCARGYVDYGGATDLWGQGTQVTVSSGGGGSGGGGSIQMTQSPSSLSASVGDRVTITCQSSESVYSNNQLSWYQQKPGQPPKLLIYDASDLASGVPSRFSGSGSGTDFTLTISSLQPEDFATYYCAGGFSSSSDTAFGGGTKLTVLGGGGGSGGGGSGGGGSGGGGSEVQLVESGGGRVQPGGSLRLSCAASGFSLSSNAMGWVRQAPGKGLEYIGIISVGGFTYYASWAKGRFTISRDNSKNTVYLQMNSLRAEDTATYFCARDRHGGDSSGAFYLWGQGTQVTVSS
B12: PRO2763 (protein)
chain: B11 chain with G610C, G682C
B13: PRO2764 (protein)
chain: B11 chain with Q183N
B14: PRO2765 (protein)
chain: B11 chain with Q183N, G610C, G682C

Target: pre-existing anti-drug antibodies (ADA) present in human sera
Assay: ELISA pre-existing ADA binding assay, confirmatory setup, test molecule coated, 20 human sera (second row for PRO2230)

Work on B1 yielded a % positives of total tested serum samples of 76%.

In the case of B1, the No of positive serum samples above 30% CCP (serum samples) is reported as 15.

Target: pre-existing anti-drug antibodies (ADA) present in human sera
Assay: ELISA pre-existing ADA binding assay, confirmatory setup, test molecule coated, 20 human sera

Point of comparison: B3, % positives of total tested serum samples 0%. Against it:
- B2 — higher, 80%
- B1 — higher, 90%
- B4 — higher, 15%
- B5 — higher, 5%

Point of comparison: B5, No of positive serum samples above 30% CCP (serum samples) 1. Against it:
- B2 — higher, 16
- B1 — higher, 18
- B3 — lower, 0
- B4 — higher, 3

Target: pre-existing anti-drug antibodies (ADA) present in human sera
Assay: ELISA pre-existing ADA binding assay, confirmatory setup, test molecule coated, 20 human sera (second row for PRO1922)

For B2, the % positives of total tested serum samples was 80%.

With B2 the No of positive serum samples above 30% CCP (serum samples) was 16.

Target: pre-existing anti-drug antibodies (ADA) present in human sera
Assay: ELISA pre-existing ADA binding assay, confirmatory setup, test molecule coated, 40 human sera

Point of comparison: B14, % positives of total tested serum samples 2.5%. Against it:
- B6 — higher, 22.5%
- B7 — higher, 5%
- B8 — higher, 15%
- B9 — higher, 25%
- B10 — higher, 7.5%
- B11 — higher, 7.5%
- B12 — the same, 2.5%
- B13 — the same, 2.5%

Point of comparison: B7, No of positive serum samples above 31.56% CCP (serum samples) 2. Against it:
- B6 — higher, 9
- B8 — higher, 6
- B9 — higher, 10
- B10 — higher, 3
- B11 — higher, 3
- B12 — lower, 1
- B13 — lower, 1
- B14 — lower, 1
